B1: phage clone 12/2 (peptide)
chain: VQNFIDYWTQQF
notes: Tested as whole phage showing the peptide; not shown: minor coat protein III of the filamentous phage of the display library; the peptide stands at its N-terminus; phage stra
B2: phage clone 12/1 (peptide)
chain: MPRFMDYWEGLN
notes: as for B1
B3: phage clone 15/5 (peptide)
chain: PRPALVFADYWETLY
notes: as for B1
B4: phage clone 15/1 (peptide)
chain: IDRAPTFRDHWFALV
notes: as for B1
B5: phage clone 12/5 (peptide)
chain: TGPAFTHYWATF
notes: as for B1
B6: phage clone BB3 (peptide)
chain: PAFSRFWSDLSAGAH
notes: Tested as whole phage showing the peptide; also called hdm2 phage; hdm2-phage; not shown: minor coat protein III of the filamentous phage of the display library; the peptide stands at its N-terminus; phage stra

target: T1, GST-hdm2 (1-188) (S. japonicum; human, UniProt Q00987 1-188); test: single clone phage ELISA on coated antigen
T1 construct: range 1-188; Fusion made in E. coli BL21 from pGEX-2T; GST, linker, hdm2 1-188 in this order; also called GST-hdm2 protein
T1 sequence (Q00987 1-188): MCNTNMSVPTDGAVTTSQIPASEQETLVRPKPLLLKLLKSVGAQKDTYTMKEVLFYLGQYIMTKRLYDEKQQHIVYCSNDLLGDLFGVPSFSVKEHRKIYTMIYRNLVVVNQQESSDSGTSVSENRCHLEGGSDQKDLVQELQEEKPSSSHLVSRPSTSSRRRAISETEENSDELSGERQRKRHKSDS
Procedure: Amplified and purified phages from this round of biopanning are tested in an ELISA on the proteins used for their selection. For single clone screening E.coli K91 cells are infected with appropriate phage dilutions and spread on LB agar with 20 μg/ml tetracycline. Single colonies are transfered to wells of a 96-well tissue culture plate containing 200 μl 2×YT medium with 20 μg/ml tetracycline per well. Phage supernatant is collected for ELISA screening after a 24 hour incubation at 37° C. with shaking. ELISA positive clones are grown up as 2 ml bacterial cultures in 2×YT medium with 20 μg/ml tetracycline for 24 hours. Phage are PEG precipitated and redissolved in 200 μl TBS buffer. Phage DNA is extracted with phenol/chloroform and ethanol precipitated. The DNA pellet is redissolved in 10 μl water and used as template for sequencing (Sequenase).
100 μl phage suspension (supernatant or PEG concentrated phage) is diluted in PBST-M and added for three hours at 4° C. Bound phages are reacted with 100 μl HRP-labelled sheep anti-M13 antibody (Pharmacia) for one hour at room temperature followed by substrate development with 100 μl TMB/H202 (0.1 mg/ml TMB, 0.3% H₂O₂ in 0.1 M Na-acetate, pH 6.0) for 15 min. The reaction is stopped by adding 100 μl 1 M sulphuric acid to the substrate and the absorbance is measured at 450 nm. All washings between the incubation steps are done with tap water.

**Q.** Does B1 bind?
**A.** binds

**Q.** Does B2 bind?
**A.** binds

**Q.** Does B3 bind?
**A.** binds

**Q.** Does B4 bind?
**A.** binds

**Q.** Does B5 bind?
**A.** binds

**Q.** Does B6 bind?
**A.** binds
